Laboratory results published in patent publication US20230414780A1 (VECT HORUS, published 2023).

Experiments:
[1] = target: T1, mouse TfR ectodomain fused to a mouse IgG1 Fc fragment (mouse, UniProt Q62351 89-763); assay: SPR, kinetic
T1 construct: extracellular domain; not shown: mouse IgG1 Fc fragment
How it was run: (§1)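 TfR–mouse Fc fusions, produced in-house, captured on HC 1500M or CM5 chips either directly or via immobilized anti-mouse IgG. VHHs injected in single-cycle or multiple-cycle kinetic mode on Biacore T200.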

[2] = target: T2, human TfR ectodomain fused to a mouse IgG1 Fc fragment (human, UniProt P02786 89-760); assay: SPR, kinetic
T2 construct: extracellular domain; ectodomain fused to the N-terminal end of the Fc, made in-house; not shown: mouse IgG1 Fc fragment
T2 sequence (P02786 89-760): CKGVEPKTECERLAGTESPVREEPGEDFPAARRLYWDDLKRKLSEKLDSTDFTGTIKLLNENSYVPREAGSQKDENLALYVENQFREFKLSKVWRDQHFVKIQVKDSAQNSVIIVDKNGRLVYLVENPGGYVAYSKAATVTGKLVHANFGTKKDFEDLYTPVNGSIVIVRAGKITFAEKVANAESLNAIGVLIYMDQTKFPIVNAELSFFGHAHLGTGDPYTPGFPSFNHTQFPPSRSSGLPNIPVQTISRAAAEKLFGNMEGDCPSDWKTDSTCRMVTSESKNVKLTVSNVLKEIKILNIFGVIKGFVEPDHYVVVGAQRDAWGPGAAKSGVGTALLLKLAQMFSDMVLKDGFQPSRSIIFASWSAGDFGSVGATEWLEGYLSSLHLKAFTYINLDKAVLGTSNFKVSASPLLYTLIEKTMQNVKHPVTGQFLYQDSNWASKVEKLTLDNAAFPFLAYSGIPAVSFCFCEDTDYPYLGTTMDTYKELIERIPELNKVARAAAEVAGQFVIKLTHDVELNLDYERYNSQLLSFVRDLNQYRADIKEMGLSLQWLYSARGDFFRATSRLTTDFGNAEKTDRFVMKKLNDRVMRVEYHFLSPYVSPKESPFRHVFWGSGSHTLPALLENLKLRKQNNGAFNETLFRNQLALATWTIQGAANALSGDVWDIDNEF
How it was run: as §1

[3] = target: T3, rhesus monkey TfR ectodomain fused to a mouse IgG1 Fc fragment (rhesus monkey, UniProt I0FKY7 89-760); assay: SPR, kinetic
T3 construct: extracellular domain; not shown: mouse IgG1 Fc fragment
How it was run: as §1

[4] = target: T4, murine TfR expressed by murine neuroblastoma Neuro-2a cells (mouse, UniProt Q62351 1-763); assay: competition with the fluorescent reference VHH on Neuro-2a cells as in FIG. 25; Ki/app on mTfR, free VHH
T4 construct: whole, on cells; also called mTfR (N2a cells)
T4 sequence (Q62351 whole entry): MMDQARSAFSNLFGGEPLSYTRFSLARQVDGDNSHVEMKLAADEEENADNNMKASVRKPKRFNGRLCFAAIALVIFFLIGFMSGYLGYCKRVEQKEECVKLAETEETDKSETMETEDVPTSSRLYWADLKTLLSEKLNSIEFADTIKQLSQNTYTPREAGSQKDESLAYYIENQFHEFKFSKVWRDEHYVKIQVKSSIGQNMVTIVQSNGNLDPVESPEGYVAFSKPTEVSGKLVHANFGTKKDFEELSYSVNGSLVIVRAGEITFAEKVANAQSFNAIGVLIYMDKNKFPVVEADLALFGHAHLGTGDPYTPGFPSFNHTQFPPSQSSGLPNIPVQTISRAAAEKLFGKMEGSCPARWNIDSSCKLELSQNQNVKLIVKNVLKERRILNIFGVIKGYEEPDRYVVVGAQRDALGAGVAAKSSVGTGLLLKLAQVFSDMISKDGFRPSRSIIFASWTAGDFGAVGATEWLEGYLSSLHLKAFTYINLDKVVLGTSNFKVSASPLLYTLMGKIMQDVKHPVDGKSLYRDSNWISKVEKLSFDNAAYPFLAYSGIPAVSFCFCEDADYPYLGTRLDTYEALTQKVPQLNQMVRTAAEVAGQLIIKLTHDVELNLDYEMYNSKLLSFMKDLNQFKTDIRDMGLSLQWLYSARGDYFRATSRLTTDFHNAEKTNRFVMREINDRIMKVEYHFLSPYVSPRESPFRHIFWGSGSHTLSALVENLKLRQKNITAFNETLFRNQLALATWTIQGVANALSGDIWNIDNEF
Method: The binding of VHH-Oligo and VHH-hFc-Oligo conjugates to mTfR was evaluated using a competition assay on living cells expressing the receptor of interest, namely murine neuroblastoma Neuro-2a cells (N2a). N2a cells were grown in Dulbecco's Modified Eagle Medium (DMEM) GlutaMAX supplemented with 10% v/v FBS in 5% CO₂ at 37° C. Cells were seeded two days before experiments in 96-well plates at a density of 50.000 cells/well. […] Resuspended cells were transferred in a 96-deepwell plate (V-bottom) containing 1% fetal bovine serum (FBS)/0.02% sodium azide in phosphate-buffered saline (PBS) and then centrifuged for 5 min at 2000 rpm at 4° C. After removing the supernatant, 5 mM EDTA in D-PBS and 4% paraformaldehyde (PFA) (v/v 1:1) were added into wells to fix cells for 15 min at room temperature. PFA was removed by centrifugation (5 min, 3000 rpm, 4° C.) and cells were resuspended with 5 mM EDTA in D-PBS. Then the cellular A680-associated fluorescence signal was quantified using an Attune™ NxT flow cytometer (Thermo Fisher Scientific) equipped with Attune™ NxT v3.1.2. Experimental data (experimental triplicates) were fitted with GraphPad Prism® software using a nonlinear fit to determine the apparent Ki inhibition constants.

[5] = target: T5, human transferrin receptor (hTfR) fused to EGFP, on CHO cells (human, UniProt P02786 1-760); assay: flow cytometry on CHO-hTfR-EGFP cells, 1 hr at 4 C, anti-6His + Alexa647 anti-mouse; nonlinear fit
T5 construct: whole, on cells; also called human TfR; CHO-hTfR-EGFP; not shown: EGFP from pEGFP-C1 vector, fused to the N-terminal (intracellular) end of hTfR
T5 sequence (P02786 whole entry, the tested form may be a part): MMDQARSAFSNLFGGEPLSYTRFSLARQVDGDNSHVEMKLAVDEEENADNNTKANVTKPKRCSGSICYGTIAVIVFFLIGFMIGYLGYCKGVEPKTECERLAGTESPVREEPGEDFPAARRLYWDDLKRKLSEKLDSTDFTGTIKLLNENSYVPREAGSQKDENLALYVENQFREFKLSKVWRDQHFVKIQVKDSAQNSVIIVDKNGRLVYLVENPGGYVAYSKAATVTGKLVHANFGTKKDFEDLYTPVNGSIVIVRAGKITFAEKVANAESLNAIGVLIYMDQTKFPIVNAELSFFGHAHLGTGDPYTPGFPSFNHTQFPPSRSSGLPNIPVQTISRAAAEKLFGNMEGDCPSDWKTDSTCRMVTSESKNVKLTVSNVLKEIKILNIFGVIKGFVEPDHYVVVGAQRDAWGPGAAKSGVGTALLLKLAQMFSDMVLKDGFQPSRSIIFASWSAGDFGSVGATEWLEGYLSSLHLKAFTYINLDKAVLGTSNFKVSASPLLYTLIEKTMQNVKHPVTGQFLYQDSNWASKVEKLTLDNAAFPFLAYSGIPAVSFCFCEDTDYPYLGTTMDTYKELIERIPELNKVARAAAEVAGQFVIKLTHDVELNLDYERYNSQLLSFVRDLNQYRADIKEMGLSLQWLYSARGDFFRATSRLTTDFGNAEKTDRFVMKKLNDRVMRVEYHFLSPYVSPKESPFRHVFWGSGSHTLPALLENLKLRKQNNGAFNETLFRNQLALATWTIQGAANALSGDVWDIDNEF
Method: CHO-hTfR-EGFP cells were incubated 1 hr at 4° C. with various concentrations of the indicated compounds. Detection of VHHs was performed using a primary mouse anti-6His (1/1000) and an Alexa647-conjugated anti-mouse secondary antibody (1/400). Measurements of cell-surface signal associated with VHH were performed using flow cytometry. The results are expressed as the ratio of Alexa647-associated fluorescence intensity of test compounds to that of background fluorescence.

[6] = target: T5, human transferrin receptor (hTfR) fused …; assay: competition flow cytometry on CHO-hTfR-EGFP cells, 4 C; VHH competitor in dilution series, phage-C5 tracer at EC80, anti-M13-A647
Method: FIGS. 17A-17D: Competition assays between VHHs and phage-VHHs. CHO-hTfR-EGFP cells were incubated 1 hr at 4° C. with VHHs (competitors) at increasing concentrations. Phage-VHHs (tracers) were then added at EC80 and incubated for 1 more hr. Phage-VHHs were detected with an anti-M13-A647 antibody (1/200). Fluorescence levels were assessed using flow cytometry. The ratio of fluorescence intensity for each point was normalized with the corresponding EGFP signal (receptor expression) and gave rise to the arbitrary unit. Data are presented as mean±SEM of independent experiments.
To evaluate whether selected VHHs compete one with the other for binding to the TfR receptor, competition assays using flow cytometry experiments were performed. All experiments were performed in 96 well plates using 2×10⁵ cells/well, at 4° C. with shaking. CHO cell line expressing the hTfR fused to EGFP was saturated with PBS/BSA 2% solution during 30 min to avoid nonspecific binding, followed by incubation with VHH (competitors) at increasing concentrations for 1 hr. Then, phage-VHHs (tracers) at EC80 were added and incubated 1 hr more. To detect the phage-VHHs, cells were washed twice with PBS/BSA 2% and incubated for 1 hr with an Alexa647-conjugated anti-M13 antibody. […] Fluorescence levels were assessed using an Attune NxT flow cytometer (Thermo Fisher Scientific). […]

[7] = target: T1, mouse TfR ectodomain fused to a mouse …; assay: SPR, at equilibrium
How it was run: as §1

[8] = target: T3, rhesus monkey TfR ectodomain fused to a …; assay: SPR, at equilibrium
How it was run: as §1

T1 sequence (Q62351 89-763): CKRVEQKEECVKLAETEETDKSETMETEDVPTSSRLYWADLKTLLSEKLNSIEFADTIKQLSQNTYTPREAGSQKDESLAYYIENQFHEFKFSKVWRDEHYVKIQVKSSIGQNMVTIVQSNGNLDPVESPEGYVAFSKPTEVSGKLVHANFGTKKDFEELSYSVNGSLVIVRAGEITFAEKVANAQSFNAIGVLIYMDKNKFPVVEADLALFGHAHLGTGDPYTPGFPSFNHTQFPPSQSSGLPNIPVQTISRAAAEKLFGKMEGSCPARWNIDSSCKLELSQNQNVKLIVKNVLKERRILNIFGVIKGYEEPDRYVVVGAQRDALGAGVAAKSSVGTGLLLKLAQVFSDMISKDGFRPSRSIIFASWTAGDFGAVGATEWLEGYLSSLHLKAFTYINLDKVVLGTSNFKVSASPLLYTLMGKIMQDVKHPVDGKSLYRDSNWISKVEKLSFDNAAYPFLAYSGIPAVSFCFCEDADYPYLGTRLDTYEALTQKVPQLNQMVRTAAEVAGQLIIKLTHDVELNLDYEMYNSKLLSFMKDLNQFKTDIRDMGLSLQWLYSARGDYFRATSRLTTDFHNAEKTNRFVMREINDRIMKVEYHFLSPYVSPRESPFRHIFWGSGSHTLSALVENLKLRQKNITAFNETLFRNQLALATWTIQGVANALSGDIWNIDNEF

Kd [1]: 88.5 nM | koff [1]: 0.0447 s⁻¹ | kon [1]: 915000 M⁻¹ s⁻¹ | Kd [2]: 0.206 nM | koff [2]: 0.000179 s⁻¹ | kon [2]: 665000 M⁻¹ s⁻¹ | Kd [3]: 5.35 nM | koff [3]: 0.00774 s⁻¹ | kon [3]: 1.55e+06 M⁻¹ s⁻¹ | Ki [4]: 319 nM | Kd [5]: 5.15 nM | IC50 (read off the curve) [6]: ~50 nM | Kd [7]: 88.2 nM | Kd [8]: 13.1 nM
B1: VHH A (C5) (VHH)
VHH: EVQLVESGGGVVQPGGSLKLSCVASGTDFSINFIRWYRQAPGKQREFVAGFTATGNTNYADSMKGRFTISRDNTKNAVYLQIDSLKPEDTAVYYCYMLDKWGQGTQVTVSS
notes: form with the C-terminal myc-His6 tag (x = 1), since the VHHs were detected with anti-6His or anti-cMyc; the same holds for m12 to m126
